# Assay results reported in publication PMC5240998 (2017).
# T1: GI.1 norovirus (Norwalk virus) virus-like particles (Norwalk virus (norovirus GI.1), UniProt Q83884 1-530)
# T1 chain: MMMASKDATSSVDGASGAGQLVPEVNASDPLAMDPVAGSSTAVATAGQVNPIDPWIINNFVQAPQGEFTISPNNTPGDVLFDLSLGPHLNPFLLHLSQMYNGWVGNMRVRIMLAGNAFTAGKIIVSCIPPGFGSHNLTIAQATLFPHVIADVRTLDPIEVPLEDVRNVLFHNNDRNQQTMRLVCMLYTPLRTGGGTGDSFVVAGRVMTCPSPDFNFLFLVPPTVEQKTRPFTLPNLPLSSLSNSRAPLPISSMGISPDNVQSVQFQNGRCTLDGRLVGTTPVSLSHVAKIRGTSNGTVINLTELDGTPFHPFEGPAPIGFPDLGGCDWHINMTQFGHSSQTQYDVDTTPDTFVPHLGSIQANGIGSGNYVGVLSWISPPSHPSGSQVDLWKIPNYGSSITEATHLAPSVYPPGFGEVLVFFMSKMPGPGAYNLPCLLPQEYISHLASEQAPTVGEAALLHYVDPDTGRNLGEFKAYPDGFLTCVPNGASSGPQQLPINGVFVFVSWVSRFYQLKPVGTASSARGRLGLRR
# Columns and labels:
# [1] = target: T2, GI.7 norovirus virus-like particles (norovirus GI.7 (strain )); assay: SPR; VLPs captured by mAb 3912
# [2] = target: T1, GI.1 norovirus (Norwalk virus) …; assay: SPR; VLPs captured by mAb 3912
# [3] = target: T2, GI.7 norovirus virus-like particles; assay: SPR; kinetic fit; VLPs captured by mAb 3912
# [4] = target: T1, GI.1 norovirus (Norwalk virus) …; assay: SPR; kinetic fit; VLPs captured by mAb 3912
binder,measurement,setting,value
"Purified NJT-R3-A3 scFv soluble protein (scFv, V domains shown) VH: EVQLLESGGGLVQPGGSLRLSCAASGFTFSSYAMSWVRQAPGKGLEWVSSIPRPGLHTSYADSVKGRFTISRDNSKNTLYLQMNSLRAEDTAVYYCAKHLRTFDYWGQGTLVTVSS VL: DIQMTQSPSSLSASVGDRVTITCRASQSISSYLNWYQQKPGKAPKLLIYGASRLQSGVPSRFSGSGSGTDFTLTISSLQPEDFATYYCQQLPAVPITFGQGTKVEIK",koff,[1],0.00224 s⁻¹
same,koff,[2],0.00149 s⁻¹
same,Ka,[3],2.02e+07 M⁻¹
same,Ka,[4],3.69e+07 M⁻¹
